{
  "source": "paper PMC5894356",
  "about": "(Structure (London, England : 1993), 2018)",
  "proteins": {"B1": {"name": "S. cerevisiae 5-aminolevulinic acid synthase (Hem1), PLP-cleaved ALAS 58-548 (enzyme)", "chain": "not shown"}},
  "target": "the molecule itself",
  "experiment": "crystal structure",
  "data": [
    {"protein": "B1", "values": [
      {"measurement": "stoichiometry N", "result": 2}
    ]}
  ]
}
